Results reported in US20260248972A1, “DUAL RECEPTOR TARGETING RADIOLIGANDS AND USES THEREOF RELATED APPLICATIONS” (priority 2022, published 2026).
*1 amine or outer side, *2 acyl side, *3 side chain or, on linkers, in order; H or OH if unused. Where a SMILES comes first, the peptide text is derived from it. Bridges are numbered along the chain shown (N, C = ends). Side-chain parts run from the residue outwards. [ ]: non-standard residue; d: D form. The star is where a group is joined. X1 = CC(C)(C)C(=O)CN1C(=O)[C@H](N*)CN(C2CCCCC2)c2ccccc21; DOTA = O=C(O)CN1CCN(CC(=O)O)CCN(CC(=O)*)CCN(CC(=O)O)CC1; 3Abz = Nc1cccc(C(=O)O)c1; CO = O=C([*:1])[*:2]

Experiment: in vivo
Settings: BALB/c nude, mouse, in vivo, iv, total radioactivity
Description: To a 0.5 M NaOAc buffer (20-50 μL, pH=4.5) was added 4 μL of exemplary or comparator compound in DMSO stock solution (2000 μM) and 2 mCi ^177Lu (ITM Isotope Technologies Munich), the resulting mixture was heated to 95° C. for 15 min. The resulting product was analyzed by radio-TLC and radio-HPLC (column: Shim-pack GIST 5 μm 4.6*150 mm; buffer A: 0.2% formic acid H2O; buffer B: 0.1% formic acid acetonitrile; flow rate: 1 mL/min; gradient: 0-5 min: 10% B to 95% B; then 5-8 min: 95% B). The labelled products were used immediately or diluted by a PBS buffer containing freshly added 3 mg/mL ascorbate.
All animal care and experimental procedure were performed by following the animal protocols approved by the ethics committee of China Institute of Radiation Protection. The BALB/c nude mice (Charles River, Beijing) were utilized for these studies. Mice were below 5 per cage in sterile, microisolator cages under temperature- and humidity-controlled conditions with a 12 h light/12 h dark schedule and fed irradiated rodent chow and reverse osmosis (RO) sterile water ad libitum. In preparation for tumor cell inoculations, mice were anesthetized with isoflurane (RWD Life Science Inc.) at an induction rate of 4% and maintained at a rate of 2.5% with 0.4 L oxygen delivered via precision vaporizer and a non-rebreathing apparatus. These mice received subcutaneous rear flank injections of approximately 4×10^6 AR42J cells ([…] pancreatic cancer cell line) suspended in 200 μL of phosphate-buffered saline (PBS) and Matrigel (Corning) (1/1). Xenografted tumors were allowed to grow for ~2-4 weeks post-inoculation and ranged in mass from 0.05 to 0.50 g (average tumor size, 0.20 g). […] The mice were euthanized, and the tissues and organs were excised from the animals at 4, 24 and 72 h post-injection. The tissues and organs were weighed, counted in a PerkinElmer 2480 WIZARD2 γ counter, and the percent injected dose (% ID) and % ID/g of each organ or tissue were calculated.

`C[C@@H](O)[C@H](NC(=O)[C@@H]1CSSC[C@H](NC(=O)[C@@H](Cc2ccccc2)NC(=O)CNC(=O)[C@H](CO)NC(=O)CNC(=O)[C@H](CCCCNC(=O)c2cccc(NC(=O)N[C@@H]3CN(C4CCCCC4)c4ccccc4N(CC(=O)C(C)(C)C)C3=O)c2)NC(=O)CN2CCN(CC(=O)O)CCN(CC(=O)O)CCN(CC(=O)O)CC2)C(=O)N[C@@H](Cc2ccc(O)cc2)C(=O)N[C@H](Cc2c[nH]c3ccccc23)C(=O)N[C@@H](CCCCN)C(=O)N[C@@H]([C@@H](C)O)C(=O)N1)C(=O)O` [Compound 177Lu-I-54, metal not drawn] ({DOTA}-K([3Abz-CO-X1])GSG[dF]CY[dW]KTCT-OH; disulfide 6-11) showed a tissue uptake at 4 h (% ID/g Adrenal gland) of 2.34 %ID/g, a tissue uptake at 24 h (% ID/g Adrenal gland) of 1.64 %ID/g and a tissue uptake at 72 h (% ID/g Adrenal gland) of 1.12 %ID/g. The tissue uptake at 4 h (% ID/g Blood) was 0.81 %ID/g, the tissue uptake at 24 h (% ID/g Blood) was 0.16 %ID/g and the tissue uptake at 72 h (% ID/g Blood) was 0.09 %ID/g. For the same compound, the tissue uptake at 4 h (% ID/g Fat) was 3.5 %ID/g, the tissue uptake at 24 h (% ID/g Fat) was 3.78 %ID/g and the tissue uptake at 72 h (% ID/g Fat) was 2.66 %ID/g. The tissue uptake at 4 h (% ID/g Femur) was 0.83 %ID/g, the tissue uptake at 24 h (% ID/g Femur) was 0.66 %ID/g and the tissue uptake at 72 h (% ID/g Femur) was 0.79 %ID/g. The tissue uptake at 4 h (% ID/g Heart) was 1.29 %ID/g, the tissue uptake at 24 h (% ID/g Heart) was 0.65 %ID/g and the tissue uptake at 72 h (% ID/g Heart) was 0.5 %ID/g. It also gave a tissue uptake at 4 h (% ID/g Intestine) of 2.07 %ID/g, a tissue uptake at 24 h (% ID/g Intestine) of 1.56 %ID/g and a tissue uptake at 72 h (% ID/g Intestine) of 1.14 %ID/g. It also gave a tissue uptake at 4 h (% ID/g Kidney) of 20.7 %ID/g, a tissue uptake at 24 h (% ID/g Kidney) of 10.5 %ID/g and a tissue uptake at 72 h (% ID/g Kidney) of 8.45 %ID/g. For the same compound, the tissue uptake at 4 h (% ID/g Liver) was 31.6 %ID/g, the tissue uptake at 24 h (% ID/g Liver) was 9.6 %ID/g and the tissue uptake at 72 h (% ID/g Liver) was 5.01 %ID/g. For the same compound, the tissue uptake at 4 h (% ID/g Lung) was 2.65 %ID/g, the tissue uptake at 24 h (% ID/g Lung) was 2.77 %ID/g and the tissue uptake at 72 h (% ID/g Lung) was 1.91 %ID/g. The tissue uptake at 4 h (% ID/g Muscle) was 0.3 %ID/g, the tissue uptake at 24 h (% ID/g Muscle) was 0.21 %ID/g and the tissue uptake at 72 h (% ID/g Muscle) was 0.16 %ID/g. It also gave a tissue uptake at 4 h (% ID/g Pancreas) of 3.91 %ID/g, a tissue uptake at 24 h (% ID/g Pancreas) of 2.65 %ID/g and a tissue uptake at 72 h (% ID/g Pancreas) of 2.42 %ID/g. It also gave a tissue uptake at 4 h (% ID/g Spleen) of 1.25 %ID/g, a tissue uptake at 24 h (% ID/g Spleen) of 0.71 %ID/g and a tissue uptake at 72 h (% ID/g Spleen) of 1.28 %ID/g. It also gave a tissue uptake at 4 h (% ID/g Stomach) of 4.81 %ID/g, a tissue uptake at 24 h (% ID/g Stomach) of 4.1 %ID/g and a tissue uptake at 72 h (% ID/g Stomach) of 4.2 %ID/g. It also gave a tissue uptake at 4 h (% ID/g Tumor) of 30 %ID/g, a tissue uptake at 24 h (% ID/g Tumor) of 25.7 %ID/g and a tissue uptake at 72 h (% ID/g Tumor) of 19.6 %ID/g.
With `C[C@@H](O)[C@H](NC(=O)[C@@H]1CSSC[C@H](NC(=O)[C@@H](Cc2ccccc2)NC(=O)COCCOCCNC(=O)[C@H](CCCCNC(=O)CC[C@H](NC(=O)CNC(=O)c2cccc(NC(=O)N[C@@H]3CN(C4CCCCC4)c4ccccc4N(CC(=O)C(C)(C)C)C3=O)c2)C(=O)O)NC(=O)COCCOCCNC(=O)COCCOCCNC(=O)COCCOCCNC(=O)COCCOCCNC(=O)COCCOCCNC(=O)CC[C@H](NC(=O)CN2CCN(CC(=O)O)CCN(CC(=O)O)CCN(CC(=O)O)CC2)C(=O)O)C(=O)N[C@@H](Cc2ccc(O)cc2)C(=O)N[C@H](Cc2c[nH]c3ccccc23)C(=O)N[C@@H](CCCCN)C(=O)N[C@@H]([C@@H](C)O)C(=O)N1)C(=O)O` [Compound I-22, DOTA-gE-OEG-OEG-OEG-OEG-OEG-K(-gE-G-Z360)-OEG-f[CYwKTC]T-OH)] the tissue to tissue ratio at 24 h (T/K Tumor/Kidney ratio) was 0.6, the tissue to tissue ratio at 24 h (T/L Tumor/Liver ratio) was 12 and the tissue to tissue ratio at 24 h (T/P Tumor/Pancreas ratio) was 5. The tissue to tissue ratio at 24 h (T/Sp Tumor/Spleen ratio) was 12, the tissue to tissue ratio at 24 h (T/St Tumor/Stomach ratio) was 7.5 and the tissue uptake at 24 h (uptake Kidney) was 21.9 %ID/g. For the same compound, the tissue uptake at 24 h (uptake Liver) was 1.1 %ID/g, the tissue uptake at 24 h (uptake Pancreas) was 2.6 %ID/g and the tissue uptake at 24 h (uptake Spleen) was 1.1 %ID/g. For the same compound, the tissue uptake at 24 h (uptake Stomach) was 1.7 %ID/g and the tissue uptake at 24 h (uptake Tumor) was 12.7 %ID/g.
